Patent publication US7045552B2, “Pharmaceutical composition for improved administration of HIV gp41-derived peptides, and its use in therapy” (Trimeris, Inc., priority 2002, dated 2006)

How the values were obtained:
[1] = target: HIV-1 gp41 (HIV-1)
[2] = system: HIV; conditions: cited from earlier work
[3] = target: HIV-1 gp41 (HIV-1); remark: listed apart in the source

T1249 (SEQ ID NO:5) (peptide)
IC50 (ng/ml), Magi-CCR5 infectivity assay; mannitol formulation [1]: 3.6 ng/mL

NNLLRAIEAQQHLLQLTVWGIKQLQARILAVERYLKDQ [DP107]
50% effective concentration (EC50), blocked infection of T cells [2]: 1000 ng/mL

T20 (SEQ ID NO:4) (peptide)
IC50, antiviral potency by the methods of Example 2; PEG 1500 formulation [3]: 6.6 ng/mL
